# Measurements published in FireProtDB (doi:10.1111/j.1432-1033.1992.tb16932.x).
# Conditions: Escherichia coli (strain K12), CD, reversible: yes, whole UniProt chain shown
# [1] = pH 3, Thermal, glycine-HCl 10 mM
# [2] = pH 5.5, 25 °C, Urea, Sodium acetate 10 mM, NaCl 0.1 M
protein,measurement,setting,value
"Ribonuclease HI wild type, P0A7Y4 (protein) MLKQVEIFTDGSCLGNPGPGGYGAILRYRGREKTFSAGYTRTTNNRMELMAAIVALEALKEHCEVILSTDSQYVRQGITQWIHNWKKRGWKTADKKPVKNVDLWQRLDAALGQHQIKWEWVKGHAGHPENERCDELARAAAMNPTLEDTGYQVEV",Tm,[1],49.8 °C
same,unfolding enthalpy (van 't Hoff),[1],98.1 kcal/mol
same,denaturant m value,[2],1.96 kcal/mol/M
same,denaturant midpoint (higher = more stable),[2],5.01 M
same,unfolding free energy,[2],9.81 kcal/mol
